Reference: doi:10.1101/2025.02.07.637169, “Structural basis of flagellar rod assembly on the FliPQR protein-export channel” (bioRxiv, 2025)

B1: FliP (natural protein)
chain: QLPGLISQPLAGGGQSWSLSVQTLVFITSLTFLPAILLMMTSFTRIIIVFGLLRNALGTPSAPPNQVLLGLALFLTFFIMSPVIDKIYVDAYQPFSEQKISMQEALDKGAQPLRAFMLRQTREADLALFARLANSGPLQGPEAVPMRILLPAYVTSELKTAFQIGFTIFIPFLIIDLVIASVLMALGMMMVPPATIALPFKLMLFVLVDGWQLLMGSLAQSFYS
notes: FliP of Salmonella enterica serovar Typhimurium, mature protein after cleavage of the signal peptide (residues 1-21; cleavage between Ala-21 and Gln-22); residue numbers count on the precursor; Five FliP subunits stand in the FliP5-FliQ4-FliR1 complex; also called mature FliP; FliP^A (Mol-A); source: Salmonella SJW1368 carrying pMKM10001 (pTrcCES3/ FliP + FliQ + FliR-His); purified as FliPQR-His …

Assays:
Assay in all cases: cryo-EM structure; FliPQR-His complex purified from Salmonella membranes and reconstituted in a peptidisc, detergent-free (20 mM Tris-HCl pH 8.0, 150 mM NaCl), fluorinated Fos-Choline 0, 1.0 or 2.0 mM added before grid preparation; single-particle analysis, C1 symmetry, 3.0 Å; closed form
[1] = biological target: T1, FliR-His (Salmonella enterica serovar Typhimurium, UniProt P54702 1-264); details: both partners purified
T1 construct: FliR of Salmonella enterica serovar Typhimurium; One FliR subunit stands in the FliP5-FliQ4-FliR1 complex; source: Salmonella SJW1368 carrying pMKM10001 (pTrcCES3/ FliP + FliQ + FliR-His); purified as FliPQR-His complex (LMNG, Ni-NTA, SEC), reconstituted in peptidisc; not shown: His tag (10 residues), C-terminal, kept
T1 sequence: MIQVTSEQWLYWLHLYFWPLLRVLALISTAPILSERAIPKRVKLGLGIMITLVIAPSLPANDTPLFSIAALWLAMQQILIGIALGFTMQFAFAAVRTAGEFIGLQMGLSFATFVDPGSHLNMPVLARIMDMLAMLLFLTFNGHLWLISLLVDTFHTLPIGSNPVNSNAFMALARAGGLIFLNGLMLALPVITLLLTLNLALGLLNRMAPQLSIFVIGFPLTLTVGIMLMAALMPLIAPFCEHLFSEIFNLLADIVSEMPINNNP

[2] = biological target: the molecule itself
[3] = biological target: B1; details: both partners purified

B1
binding result [1]: binds | stoichiometry N [2]: 5 subunits

B2: FliQ (natural protein)
chain: MTPESVMMMGTEAMKVALALAAPLLLVALITGLIISILQAATQINEMTLSFIPKIVAVFIAIIVAGPWMLNLLLDYVRTLFSNLPYIIG
notes: FliQ of Salmonella enterica serovar Typhimurium; Four FliQ subunits stand in the FliP5-FliQ4-FliR1 complex; source: Salmonella SJW1368 carrying pMKM10001 (pTrcCES3/ FliP + FliQ + FliR-His); purified as FliPQR-His complex (LMNG, Ni-NTA, SEC), reconstituted in peptidisc
binding result [1]: binds | binding result [3]: binds
